Results: publication PMC10999750

Key:
Assay in all cases: fluorescence polarisation; FITC-tagged peptide ('2 nm' [sic]) with importin two-fold serially diluted from 4.5 µM across 23 wells, 200 µl, GST Buffer A (50 mM Tris, 125 mM NaCl); three independent experiments
[1] = target: AAV 09YN Cap-BR-mMAJOR (FITC labelled peptide, residues 117-167, major site mutant)
[2] = target: AAV 09YN Cap-BR-mMINOR (FITC labelled peptide, residues 117-167, minor site mutant)
[3] = target: Synthetic FITC labelled AAV 09YN Cap-BR peptide (residues 117-167)
[4] = target: AAV 09YN Cap-BR-mMINOR+mMAJOR (FITC labelled peptide, residues 117-167, minor and major site mutant)

Substance | Kd [1] | Kd [2] | Kd [3] | Kd [4]
Human importin α3 lacking the IBB domain (hImpα3DIBB) (domain or fragment) | 1.2 nM | 1.6 nM | 1 nM | 1.4 nM
Human importin α5 lacking the IBB domain (hImp5DIBB) (domain or fragment) |  |  | 862 nM | 
Human importin α7 lacking the IBB domain (hImpα7DIBB) (domain or fragment) |  |  | 11 nM | 
Human importin α1 lacking the IBB domain (hImpα1DIBB) (domain or fragment) |  |  | 483 nM | 
Human importin β (hImpβ) (from UniProt Q14974 1-876) (natural protein) |  |  | 1140 nM | 
